Source: the DeepSol protein solubility set

Assay: soluble on expression in E. coli; label from the status in PepcDB or PDB records

Question: For “MGFWCRMSENQEQEEVITVRVQDPRVQNEGSWNSYVDYKIFLHTNSKAFTAKTSCVRRRYREFVWLRKQLQRNAGLVPVPELPGKSTFFGTSDEFIEKRRQGLQHFLEKVLQSVVLLSDSQLHLFLQSQLSVPEIEACVQGRSTMTVSDAILRYAMSNCGWAQEERQSSSHLAKGDQPKSCCFLPRSGRRSSPSPPPSEEKDHLEVWAPVVDSEVPSLESPTLPPLSSPLCCDFGRPKEGTSTLQSVRRAVGGDHAVPLDPGQLETVLEK”, which “soluble on expression in E. coli” value is on record?
Answer: soluble

Question: With “MVSSAVKCGICRGVDGKYKCPKCGVRYCSLKCYKDAAKHVHKESEQPRAGTEANVEVVNNDKIINSSLAMNKTLKTKAFDDIYQNSAELQELLKYNTVKFHLAKVYRILSSTVNDGSSGKMNSDLQKELAVNYLNTLRYGGIHYNEAIEEFCQILLDKLNAVKK” as the sequence, how does the “soluble on expression in E. coli” value read?
Answer: soluble

Question: For “RKMFRALMPALEELTFDPSSAHPSLVVSSSGRRVECSEQKAPPAGEDPRQFDKAVAVVAHQQLSEGEHYWEVDVGDKPRWALGVIAAEAPRRGRLHAVPSQGLWLLGLREGKILEAHVEAKEPRALRSPERRPTRIGLYLSFGDGVLSFYDASDADALVPLFAFHERLPRPVYPFFDVCWHDKGKNAQPLLLV”, which “soluble on expression in E. coli” value is on record?
Answer: soluble

Question: With “MKTRITELLKIDYPIFQGGMAWVADGDLAGAVSKAGGLGIIGGGNAPKEVVKANIDKIKSLTDKPFGVNIMLLSPFVEDIVDLVIEEGVKVVTTGAGNPSKYMERFHEAGIIVIPVVPSVALAKRMEKIGADAVIAEGMEAGGHIGKLTTMTLVRQVATAISIPVIAAGGIADGEGAAAGFMLGAEAVQVGTRFVVAKESNAHPNYKEKILKARDIDTTISAQHFGHAVRAIKNQLTRDFELAEKDAFKQEDPDLEIFEQMGAGALAKAVVHGDVDGGSVMAGQIAGLVSKEETAEEILKDLYYGAAKKIQEEASRWTGVVRNDLEHHHHHH” as the sequence, how does the “soluble on expression in E. coli” value read?
Answer: soluble

Question: Which “soluble on expression in E. coli” value does the source give for “AHHHHHHGSKLIEMLKEITQVPGISGYEERVREKIIEWIKDYADYKVDEIGNLIVELGEGEVKAVFMAHMDEIGLLITGITQDGKLRFRKVGGIDDRLLYGRHVDVITENGKLDGVIGALPPHLNVKGVKDVVPWYQLTIDIGAESKEEALSLGVKPLDYAVFKKHFSVLNNKIVSTRSLDDRFGVVALVQAIRNLVDHELSGKFIFAFTVQEEIGLKGAKFLAEKYSPEYAFAIDSFACCSELTGDVRLGGGAVIRAVDNSAIYSRDLARKVWEIAEKNNIPIQIGVTGGGTDASVFQHKSKVLALSVPMKYLHSEVEMLNVKDLEALIALIEAITFEI” here?
Answer: soluble

Question: For “AHHHHHHGSTQKKLIEYTNPSTSRRKITRIPIDSPDYPPLLKQIKDPPKIIYAIGNVRLLNKPAVAIVGTRQPSERGEYYAEKVAEFYAKQGFVIVSGLALGIDSIVIKTALKTGAHVIGVLPSPVNDIVPKSNEKLAEKIIRSGGLLISELPEGTKPKKYHFVRRNRIISGISFAVVVIESELKDGTMHTVKFAKQQRRIILVTNLPASGNAKLKNEGFPILDF”, which “soluble on expression in E. coli” value is on record?
Answer: soluble

Question: With “MNDTLPGRISRERRGHLLLLGLDRVAKRNAFDLPMLDDLVAALGEYEADDQLRCALLFAHGEHFTAGLDLANVGETFRQGWKLPEGAVDPWGTFGGRRPSKPLVVAVQGYCYTIGIELMLAADINLCASNARFAQLEVQRGILPFGGATLRMHQVAGWGNAMRWLLTGDEFDAHEAYRLGLVQEVTAPEDLLDHAIALAERVAAQAPLGVRATLGSARQALLEGEAVAAAALPEAARRLLDSEDAKEG” as the sequence, how does the “soluble on expression in E. coli” value read?
Answer: not soluble

Question: For “MNNQSQVKVGPPLWLLAELTYDCPLHCPYCSNPTELGDTKDELNTEQWLDVLTQARAMGAVQLGFSGGEPLLRKDLEQMVKHSRELGFYTNLITSGIGLTEKRIAKLKVAGLDHIQISFQGADPEMNDIIAGRGNAFEQKFKMAQSVKAQGYPMVLNFVISKQNISQVEDIMRLSCQLNADYVELATAQYYGWAYDNRDHLLPSQQQLIDAEKIVNEFRDKQQGKGPQFIFVTPDYFEVRPKACMNGWGSTFLTIAPDGSALPCHSAKMLPLKFPNVKDKSISDIWQQDFSFNRFRGDSWMPQPCQSCDEKEKDFGGCRCQAFMMTGDMDKTDPVCSKSPDHHLIQEAIERAKHPKNPLLERVNKRSIKDADIVQIKL”, which “soluble on expression in E. coli” value is on record?
Answer: not soluble

Question: With “MNSSTENVTLKLKSEQLDIAKQWIQTEDVKAYKETSSIQKTFTIPVEREELVIEKIPTASDDKKEVIRIPLSEEEVNFSKHRIILEDVSIYKNQIEDVRHIEETLKKENPKIETFGNAKVIKKLEHHHHHH” as the sequence, how does the “soluble on expression in E. coli” value read?
Answer: not soluble

Question: With “LTSKLVQAGANVKVIMTESACRFVSPLTFQALSRHEVYTDTFKEQNPSVISHIDAADWADLIIVAPATANVIGKLANGIADDMLTTTLLAATAPVWIAPAMNVHMYDHPAVKRNISVLYQDGYCFIEPSEGYLACGYVGKGRLEEPENIVKLAEKHFAEETSAPLEGKHVVITAGPTREAIDPVRFFTNKSTGKMGYALAEAAVQLGARVILISGPVSLDQPKGLAEFIPVQSAADMREAVLSVYDASDIVIKTAAVADFTPKTVFDHKMKKQDGGMTLELKRTVDILKELGEKKKEQILVGFAAETQDIEHYARKKLAAKNLDLIVANDVKANGAGFGADTNIVTIFFKDGHKRELPIMSKLDVSFEILQEIAALSKQTGERS” as the sequence, how does the “soluble on expression in E. coli” value read?
Answer: not soluble

Question: Which “soluble on expression in E. coli” value does the source give for “MSLPVKNLRHLPKAHLHLHLEGAMRPATLTEFCERYKIKRPSDTRGKQFSNFAAFNEVYRAASDSIRTRQDLARVIQEVAEDAAKDGATWIEPAFDADRYTVLRADKSLRLFETPYEGWLFALKAARNASEKTGVGISFISAIDRTRPIDQANERAKLTTNLIASQKHQITAKNINGGEPYAGIIGLGLHGNEEGYPPEIFAEAFQIVTKKTEALSIPHAGEIAPTPGKGPESVEKAIDILSASRIQHGVLAIQDEVLIEKIKEKNICLDVCPSSNIQLSVFPNIQAHPLPLLIESGVSCSLGSDDPLLFGPSLLDEFELCREQMRLSDNTLAQLARNSFKYSGAPKKIVEQGLRDIDTWLNEGHHHHHH” here?
Answer: soluble

Question: With “MTVSPIDPVKLEKLAEVAIKVGLQLQKDQDLVITAPLAALPLVRLLTKHAYIAGGGLVTTFYSDEETTLSRYRHASDANFDRASGWLYEGMAKAYANGAARLAIAGDNPMLLAEEDPAKVARANKANSTAYKPALEKISNFDINWNIISYPNPSWAKQVFPGLTEDEAVRKLADAIFAASRVDVADPVAAWAQHNANLAKRSAWLNGERFSALHFTGPGTDVKIGLADGHEWHGGASMAKNGVTCNPNIPTEEVFTTPHALRVDGYVSSTKPLSHQGTLIDDIQVKFEAGRIVEAKASKGEAVLNKVLDTDEGARRLGEVALVPHSSPISASGILFYNTLFDENASCHIALGQCYSKCFLDGASLSQDQIKAQGGNSSLIHIDWMIGSNKVDIDGVKPDGSTVPVMRKGEWA” as the sequence, how does the “soluble on expression in E. coli” value read?
Answer: not soluble

Question: For “MQMNHPIYIASDHTGLELKSLVIKHLEQQKLQVIDLGPTELDPLDDYPDYAFLLAQTMQANPNSLGILICGTGVGVCMAANKAKGILAALVVDSKTAALARQHDDANVLCLSSRFVVPEENIKIVDEFLQAQFEGGRHSKRVGKIIAYEREK”, which “soluble on expression in E. coli” value is on record?
Answer: soluble

Question: Which “soluble on expression in E. coli” value does the source give for “MAHHHHHHMLKSSIVLLRRGKPRPRAGMFPEKYRRVPTLLKPQQGGQQYFNEFLIRSANDALEAQQQGYGSAFRVGGSGAARILADGNATAADGIHDGEISSVHPRLPQADIDGVLQRSRAETIQAELKQLVAQDGFISQRGFNERLWYEQEHHRLRTHGDGVEASPSEVAATAAASSSTAEAVSATGEGRAVPERILGDDYFQSKFGYSLLKGRSPDASAVADNVKAYAQLDLWGEMPMYSRDFVFLYLVSRRRNTYAVAYDYDGKRLLPTYTAGNRGLKGGDRGFRGDGSTDNGHQVTSMYLNDLLPKIREARAASGRPLGRGEKIDLVVRVMGFYNGRQGAVRAVQDRSADFRVRYLEDVTPFPLNGPKMPRGVFR” here?
Answer: not soluble

Question: Which “soluble on expression in E. coli” value does the source give for “MGSDKIHHHHHHEPYSEIIEEDYVPTEADEIALLATTYSQLRFVMDWYGLFDLQEESGDVIVTPTRPNGWDDGGTYKQMHKHTWDNQQGQPQSIWDYCYKGIANANKILKRADEGFFTEESKPKVVAEVKGVRALWYSILCDTHGNIPIQTSFSEEVPVQSTRKQVFDFIINELKEVMPNLPTEVNKSTYGRLTQWGAKCLMARMYLNAGVYTGTPMWNECLEQCNDIINSGLFSLETNYTDIFKTENSGCVETIFAIPYDEVYNEGDNNGPVFGAHMKFLSSNSRKVFNMQTTPWGGSAANPQFINSYDPDDMRLKYTWLQGDQYSPDGVLITTFPNKLPSIYKTDTDDGYRVGKYEIKVGAKSLLSNDFPYFRYTEVLLMKAECLLRLGQNETEAAHIVSQIRERAFRESAHPEKATVDAAWLKGDTHINYGTLDEKGQIDDAGNTEVVELGGLYDEWGWEFAAEARRRTDMIRFGTYQKKSWFNHTPTANDLNGNSILFPIHLDHLNTNPNLQQNPGYAGK” here?
Answer: not soluble

Question: For “MNQLLKTLRDFGLSSYEASAYVALVSSGETTAREVSRKAGIPRTKVYEVLNRLVEKGFAEVQPGSPAIFRAIEPAKIAARMQRDFNERLGKMLKAFEELKMDEKSESKLVWISRGRWAVENRLREFLRENDKVMVFCITENFASVLSEVRGEHRVLLYQKFRVPENIREFRVLDLGRIKKAKDGFVARFAEIIEGTEAGKPEILIISEGSSILALSHGEEYLALSIHLPLIVALQKRMFDTLYESYC”, which “soluble on expression in E. coli” value is on record?
Answer: not soluble

Question: With “MSNLNPCMTCGACCAFFRVSFYWAEADDAGGTIPARLTEQISPFHRCMSGTNQKNPRCIALAGTPGKNACCTIYKNRSSTCREFAMSGENGVVNEACNRARAKYGLTPL” as the sequence, how does the “soluble on expression in E. coli” value read?
Answer: not soluble

Question: With “MITPKGTHDAVAKFQKTDLHQDLDYIVLQQRRTQLETLINERESFVKNLCSLFHKIQNTKNYQEFVDVLAENRDLLREIFTVENGFQKQKWISNDDIPQIDWDKFALDINAYIAENDQLLALYEDGLL” as the sequence, how does the “soluble on expression in E. coli” value read?
Answer: not soluble

Question: For “MAHHHHHHMRGTPLREGHHSPTQSVRRFFSDYQHVQEEKVNLPRLKLRGLPFDASEEEIKTFFKNFQLAKVGYPIHIIRGVKNKPTGQAHVYFDDEEEARKACETLNRKFLRNRYIEIYTDYIFNHNLTLVKEHVTTLMRDRYRKDNQ”, which “soluble on expression in E. coli” value is on record?
Answer: not soluble

Question: Which “soluble on expression in E. coli” value does the source give for “MGSDKIHHHHHHMEQDDKKLFVLDTNVLLHEPLAIYSFKEHDVVVPMTVLEELDQIKDRKRDVSRDARVAIRALEDILGGQTTPEEIVSGVPLPKREGHGDAVGSLSIFPDHQLEFTQASLPGDNNDNRIINTALHLQNQFAPRHVVLVTKDINMRLKAKGAGINLVEDYRTDQLIDDIRFLTKGFHQFEGDFWARKEHVNTETQGRHTVHRVPVKEVGEENFYTNQYLIDEDSNFCGRVLSNNDEELEILDLGRDRLLNLDAWGIKPKNVYQGMAMQALLDPDIDLVILTGPAGCGKTLLAMAAALEMVVERGLYDKVIVTRNTPEIAESIGFLPGTEEEKMAPWLAAITDTLEVLHKHDVNPSGSMNYIMDKANIQFKSINFMRGRSIQNSVVLLDECQNLTASQIKTMITRMGEGTKLICSGNLAQIDSNYLTAVTSGLTYIVERFKNFDGSANIYLNGVVRSRLAEFAEENL” here?
Answer: not soluble

Question: Which “soluble on expression in E. coli” value does the source give for “MSTDEWRTERDPLVSQDRFLWEKVCCTIIPLHKKRYSSFAKEVVNVSKDAVKINNKKQYITQILPLSQANQQKLTEVKREKKAIAQTHKIHFFDRVVHRKIAKGHYSIEARLDLHGCMQEEAYFFLKKFLQSSQQNGLRYVLVITGKGRSPGSNGVLYQSVPHWLSTPAFRYYVHAFEQAARQHGGDGALYVRLRRFLPGKGYDVV” here?
Answer: not soluble

Question: Which “soluble on expression in E. coli” value does the source give for “SNAMKFLTVSDDMNFLRQVNTLVAGKGDMDSVIIGEGDAKGLGSKVLYRAKKGTPFDAVSEGILKIAGNYDYIAIGSTEVGREIAGYLSFKTGFYTATEIFSLEFNGQKAHTKRFFYGGKTVIEEESDARILTVAPGVIEAKDLGTTPEIRDLEIGQSRIKITKFV” here?
Answer: soluble
